Assay results taken from paper PMC2859858.

molecular target: ProLabel-LEDGF fusion protein (UniProt O75475); experiment: chemiluminescent co-IP assay; details: 293T cells, 48 h after transfection; parent: est. 4700; read off a plot
UniProt O75475, sequence (O75475 whole entry, the tested form may be a part): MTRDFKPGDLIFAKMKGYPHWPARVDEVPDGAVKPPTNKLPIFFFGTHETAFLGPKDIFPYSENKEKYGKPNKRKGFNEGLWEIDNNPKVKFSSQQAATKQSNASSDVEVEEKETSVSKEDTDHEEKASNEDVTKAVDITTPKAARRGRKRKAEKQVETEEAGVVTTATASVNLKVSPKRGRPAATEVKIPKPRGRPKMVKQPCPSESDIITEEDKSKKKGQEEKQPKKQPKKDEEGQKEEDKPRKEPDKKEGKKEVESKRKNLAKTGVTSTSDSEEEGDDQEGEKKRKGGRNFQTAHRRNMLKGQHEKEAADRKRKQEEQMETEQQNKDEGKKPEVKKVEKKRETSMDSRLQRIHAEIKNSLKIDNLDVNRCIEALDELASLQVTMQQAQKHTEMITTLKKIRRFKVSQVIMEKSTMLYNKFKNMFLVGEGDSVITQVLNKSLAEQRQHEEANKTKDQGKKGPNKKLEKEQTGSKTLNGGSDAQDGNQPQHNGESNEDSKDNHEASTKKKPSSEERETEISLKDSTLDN

Substance | response [RLU]
AcGFP1-IN wild type H171A; L172A | 130
AcGFP1-IN wild type E170A; K173A | 1300
AcGFP1-IN wild type E170A; H171A | 50
AcGFP1-IN wild type H171A; K173A | 250
